Assay results: paper PMC10397247
One block for each binder: values may come before it.

Tests used:
Assay in all cases: two-hybrid library CCNG1;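 note: natural log of median RNA to DNA barcode read ratio; higher means stronger binding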
4H1158-bN = biological target: T1, 4H1158-bN
T1 chain: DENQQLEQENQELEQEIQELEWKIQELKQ

4H118-bN = biological target: T2, 4H118-bN
T2 chain: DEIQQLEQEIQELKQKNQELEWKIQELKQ

4H170-bN = biological target: T3, 4H170-bN
T3 chain: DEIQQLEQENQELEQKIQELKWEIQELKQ

4H1831-bN = biological target: T4, 4H1831-bN
T4 chain: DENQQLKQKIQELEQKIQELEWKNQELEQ

4H2586-bN = biological target: T5, 4H2586-bN
T5 chain: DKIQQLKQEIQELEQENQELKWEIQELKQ

4H2627-bN = biological target: T6, 4H2627-bN
T6 chain: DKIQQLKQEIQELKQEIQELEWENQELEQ

4H2673-bN = biological target: T7, 4H2673-bN
T7 chain: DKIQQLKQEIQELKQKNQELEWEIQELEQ

4H2702-bN = biological target: T8, 4H2702-bN
T8 chain: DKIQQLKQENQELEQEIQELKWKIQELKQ

4H3010-bN = biological target: T9, 4H3010-bN
T9 chain: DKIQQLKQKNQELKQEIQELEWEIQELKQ

4H3112-bN = biological target: T10, 4H3112-bN
T10 chain: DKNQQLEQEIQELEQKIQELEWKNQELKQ

4H3427-bN = biological target: T11, 4H3427-bN
T11 chain: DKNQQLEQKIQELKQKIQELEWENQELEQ

4H346-bN = biological target: T12, 4H346-bN
T12 chain: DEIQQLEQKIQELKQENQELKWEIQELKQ

4H3926-bN = biological target: T13, 4H3926-bN
T13 chain: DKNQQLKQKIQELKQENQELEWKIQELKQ

4H4073-bN = biological target: T14, 4H4073-bN
T14 chain: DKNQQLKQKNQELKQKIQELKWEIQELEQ

4H457-bN = biological target: T15, 4H457-bN
T15 chain: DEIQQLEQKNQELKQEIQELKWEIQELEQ

4H575-bN = biological target: T16, 4H575-bN
T16 chain: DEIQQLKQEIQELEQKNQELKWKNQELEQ

4H683-bN = biological target: T17, 4H683-bN
T17 chain: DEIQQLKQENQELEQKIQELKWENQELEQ

4H754-bN = biological target: T18, 4H754-bN
T18 chain: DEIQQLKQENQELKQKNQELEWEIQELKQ

4H780-bN = biological target: T19, 4H780-bN
T19 chain: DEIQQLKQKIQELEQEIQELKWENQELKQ

4H797-bN = biological target: T20, 4H797-bN
T20 chain: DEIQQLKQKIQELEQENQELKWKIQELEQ

4H855-bN = biological target: T21, 4H855-bN
T21 chain: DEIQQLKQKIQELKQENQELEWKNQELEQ

4H918-bN = biological target: T22, 4H918-bN
T22 chain: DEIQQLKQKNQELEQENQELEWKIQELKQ

4H953-bN = biological target: T23, 4H953-bN
T23 chain: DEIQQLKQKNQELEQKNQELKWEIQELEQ

4H968-bN = biological target: T24, 4H968-bN
T24 chain: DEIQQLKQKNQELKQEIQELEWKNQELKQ

4H1387-bH = biological target: T25, 4H1387-bH
T25 chain: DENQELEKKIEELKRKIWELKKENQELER

4H1406-bH = biological target: T26, 4H1406-bH
T26 chain: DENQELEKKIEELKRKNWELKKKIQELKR

4H3592-bH = biological target: T27, 4H3592-bH
T27 chain: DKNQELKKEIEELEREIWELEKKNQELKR

4H3601-bH = biological target: T28, 4H3601-bH
T28 chain: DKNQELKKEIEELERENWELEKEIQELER

4H3907-bH = biological target: T29, 4H3907-bH
T29 chain: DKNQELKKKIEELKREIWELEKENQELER

4H4001-bH = biological target: T30, 4H4001-bH
T30 chain: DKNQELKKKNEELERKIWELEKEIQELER

4H4038-bH = biological target: T31, 4H4038-bH
T31 chain: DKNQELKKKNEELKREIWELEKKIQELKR

4H850-bN = biological target: T32, 4H850-bN
T32 chain: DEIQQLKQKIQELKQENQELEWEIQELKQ

interaction score (4H1158-bN): 0.0264 | interaction score (4H118-bN): 0.579 | interaction score (4H170-bN): -0.262 | interaction score (4H1831-bN): -0.553 | interaction score (4H2586-bN): 0.693 | interaction score (4H2627-bN): -1.89 | interaction score (4H2673-bN): -1.07 | interaction score (4H2702-bN): -0.191 | interaction score (4H3010-bN): 1.32 | interaction score (4H3112-bN): 0.501 | interaction score (4H3427-bN): -0.273 | interaction score (4H346-bN): -0.45 | interaction score (4H3926-bN): -1.19 | interaction score (4H4073-bN): 2.1 | interaction score (4H457-bN): 0.107 | interaction score (4H575-bN): -0.306 | interaction score (4H683-bN): 0.827 | interaction score (4H754-bN): 0.195 | interaction score (4H780-bN): -0.000435 | interaction score (4H797-bN): -0.804 | interaction score (4H855-bN): 0.326 | interaction score (4H918-bN): -1.72 | interaction score (4H953-bN): 0.0849 | interaction score (4H968-bN): -1.23
Binder: DENQQLEQENQELEQEIQELEWKIQELKQ [4H1158-bN]

interaction score (4H1387-bH): 0.423 | interaction score (4H1406-bH): -0.693 | interaction score (4H3592-bH): 1.37 | interaction score (4H3601-bH): -0.847 | interaction score (4H3907-bH): 1.59 | interaction score (4H4001-bH): 0.333 | interaction score (4H4038-bH): 1.09 | interaction score (4H850-bN): 0.44
Binder: DENQELEKKIEELKRKIWELKKENQELER [4H1387-bH]
